We go through one molecule from US20240383982A1 (Genmab, published 2024).

Test [1] concerns the target T1, recombinant hIgG1 Fc-tagged cynomolgus monkey B7H4 (Creative BioMart, cat. no. VTCN1-1517R) (cynomolgus monkey, UniProt Q7Z7D3 25-259 (human entry)).
T1 construct: Bought protein; also called cynomolgus monkey B7H4 extracellular domain
T1 sequence: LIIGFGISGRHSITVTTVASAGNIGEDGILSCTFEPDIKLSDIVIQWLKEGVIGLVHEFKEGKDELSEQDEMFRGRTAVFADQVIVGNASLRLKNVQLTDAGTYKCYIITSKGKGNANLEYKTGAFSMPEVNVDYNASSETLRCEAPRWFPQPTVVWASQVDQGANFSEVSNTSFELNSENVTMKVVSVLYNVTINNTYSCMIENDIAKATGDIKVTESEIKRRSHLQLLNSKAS
In words: BLI (Octet HTX); Fc-tagged cynomolgus B7H4 coupled to AR2G sensor, bispecific antibody in solution (monovalent B7H4 binding); 2nd experiment (R^2 0.97, below the 0.98 threshold); R^2 0.97, below the 0.98 quality threshold (footnote b). Here is the method:
(§1) In addition, the affinity of for cynomolgus monkey B7H4 was determined by BLI. […] Amine Reactive 2nd Generation (AR2G) biosensors (FortéBio, cat. no. 18-5092) were activated by reaction with 20 mM EDC (N-(3-Dimethylaminopropyl)-N′-ethylcarbodiimide hydrochloride) (FortéBio, cat. no. 18-1033) and 10 mM s-NHS (N-hydroxysulfosuccinimide sodium salt) (FortéBio, cat. no. 18-1067) for 300 s. The activated sensors were loaded with 10 μg/mL recombinant hIgG1 Fc-tagged cynomolgus monkey B7H4 (Creative BioMart, cat. no. VTCN1-1517R) in 10 mM Sodium Acetate pH 4.0 (FortéBio, cat. no. 18-1068) for 600 s and quenched with 1 M ethanolamine pH 8.5 (FortéBio, cat. no. 18-1071) for 300 s. […] A molecular mass of 150 kDa of the antibodies was used for calculations. For each antibody a reference sensor was used, which was incubated with Sample Diluent instead of antibody.
(§2) Data were acquired using Data Acquisition Software v9.0.0.49d (FortéBio) and analyzed with Data Analysis Software v9.0.0.12 (FortéBio). Data traces were corrected per antibody by subtraction of the reference sensor. The Y-axis was aligned to the last 10 s of the baseline, Interstep Correction alignment to dissociation and Savitzky-Golay filtering were applied. Data traces with a response<0.05 nm were excluded from analysis. […]

The target in another test is T2, B7H4-IgV/B7H3-IgC.
T2 construct: also called chimeric molecule with the IgV domain of B7H4 and the IgC domain of B7H3
T2 full-length chimeric protein on cells: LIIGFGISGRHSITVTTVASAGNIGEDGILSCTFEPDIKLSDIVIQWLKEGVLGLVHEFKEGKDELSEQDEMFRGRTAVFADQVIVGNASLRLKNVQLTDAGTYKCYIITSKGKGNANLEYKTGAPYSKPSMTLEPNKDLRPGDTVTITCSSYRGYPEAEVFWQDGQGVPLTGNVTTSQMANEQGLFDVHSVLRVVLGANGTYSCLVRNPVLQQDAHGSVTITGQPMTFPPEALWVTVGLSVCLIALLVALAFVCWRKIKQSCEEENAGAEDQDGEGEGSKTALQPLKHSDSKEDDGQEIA
In words: flow cytometry, HEK cells transiently transfected with B7H4-IgV/B7H3-IgC, PE anti-human IgG F(ab')2 [panel B7H4-IgV/B7H3-IgC].

Test [2] concerns the target T1, recombinant hIgG1 Fc-tagged cynomolgus …. In words: BLI (Octet HTX); Fc-tagged cynomolgus B7H4 coupled to AR2G sensor, bispecific antibody in solution (monovalent B7H4 binding); 2nd experiment (R^2 0.97, below the 0.98 threshold). Here is the method:
as §1, §2

In test [3] the target is T3, human B7H4, full length, on cells (human, UniProt Q7Z7D3 25-282).
T3 construct: Uniprot Q7Z7D3; Used for transfected HEK cells and for the B7H4-expressing human tumor cell lines (endogenous B7H4); also called VTCN1
T3 sequence: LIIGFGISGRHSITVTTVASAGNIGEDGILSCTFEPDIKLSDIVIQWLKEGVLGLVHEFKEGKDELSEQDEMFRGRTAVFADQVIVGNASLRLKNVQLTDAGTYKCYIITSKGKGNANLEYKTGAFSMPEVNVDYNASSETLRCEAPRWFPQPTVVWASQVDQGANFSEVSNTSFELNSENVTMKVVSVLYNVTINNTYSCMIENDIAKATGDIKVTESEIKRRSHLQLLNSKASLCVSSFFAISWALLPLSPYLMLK
In words: flow cytometry on MDA-MB-468 tumor cells [MDA-MB-468 right panel]. Here is the method:
Cells (3×10⁴ cells/well) were incubated in polystyrene 96-well round-bottom plates (Greiner bio-one, cat. no. 650180) with serial dilutions of antibodies (ranging from 0.000458 to 30 μg/mL in 4-fold dilution steps) in 100 μL PBS/0.1% BSA/0.02% azide (staining buffer) at 4° C. for 30 min. Experiments were performed in technical duplicate. After washing twice in staining buffer, cells were incubated in 50 μL secondary antibody at 4° C. for 30 min. As a secondary antibody, R-Phycoerythrin (PE)-conjugated goat-anti-human IgG F(ab′)₂ (1:500 in FACS buffer; Jackson ImmunoResearch Laboratories, Inc., West Grove, PA, cat. no. 109-116-098), was used. Cells were washed twice in staining buffer, re-suspended in 30 μL FACS buffer containing Topro-3 (1:10,000 dilution) and analyzed on an iQue Screener (Intellicyt Corporation, USA). Binding curves were analyzed using non-linear regression (sigmoidal dose-response with variable slope) using GraphPad Prism V7.02 software (GraphPad Software, San Diego, CA, USA).
Binding was analyzed by flow cytometry as described above.

Description for B7H4-IgV/B7H3-IgC: After washing twice in FACS buffer, cells were incubated with secondary antibody at 4° C. for 30 min. […] Next, cells were washed twice in FACS buffer, re-suspended in 20 μL FACS buffer and analyzed on an iQue Screener (Intellicyt Corporation, USA).
Further experiments were conducted to study the B7H4 domain specificity of the B7H4 antibodies in more detail, by analysis of full dose-response curves.

B1: bsIgG1-huCD3-H101G-FEALxB7H4-C5-FEAR (bispecific antibody)
heavy 1: not shown
light 1: not shown
heavy 2: QLQLQESGPGLVKPSETLSLTCTVSGGSIKSGSYYWGWIRQPPGKGLEWIGNIYYSGSTYYNPSLRSRVTISVDTSKNQFSLKLSSVTAADTAVYYCAREGSYPNQFDPWGQGTLVTVSSASTKGPSVFPLAPSSKSTSGGTAALGCLVKDYFPEPVTVSWNSGALTSGVHTFPAVLQSSGLYSLSSVVTVPSSSLGTQTYICNVNHKPSNTKVDKRVEPKSCDKTHTCPPCPAPEFEGGPSVFLFPPKPKDTLMISRTPEVTCVVVAVSHEDPEVKFNWYVDGVEVHNAKTKPREEQYNSTYRVVSVLTVLHQDWLNGKEYKCKVSNKALPAPIEKTISKAKGQPREPQVYTLPPSREEMTKNQVSLTCLVKGFYPSDIAVEWESNGQPENNYKTTPPVLDSDGSFFLYSRLTVDKSRWQQGNVFSCSVMHEALHNHYTQKSLSLSPGK
light 2: not shown
notes: also called bslgG1-huCD3-H101G-FEALxB7H4-C5-FEAR
Turning to B1, in test [1], the dissociation constant (Kd) came to 6 nM. The “EC50 (read off the curve)” value with B7H4-IgV/B7H3-IgC is approximately 1 µg/mL; in test [3], approximately 0.6 µg/mL. Moreover, the koff in test [2] stood at 0.0025 s⁻¹. In addition, the kon in test [2] came out at 420000 M⁻¹ s⁻¹.
